± gives the uncertainty stated by the source.
Assay: protein stability index of a GFP-peptide fusion (yeast GPS) (PSI 1-4); higher = more stable; sorted into four equal gates, so the index is relative within each strain
Outline: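 Peptides tiling yeast proteins in 17-residue segments were fused downstream of GFP, with Cherry expressed from the same plasmid. As a pooled library in yeast, mid-log cultures grown in leucine-free medium were sorted into four equal gates by GFP/Cherry fluorescence ratio. Gate plasmids were PCR-amplified and Illumina-sequenced, and barcodes linked reads to strains. Each peptide received a protein stability index equal to the sum of each gate's read frequency times its gate number.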

Sequence	protein stability index (doa10∆)	protein stability index (pdr5∆)	protein stability index (san1∆)	protein stability index (ubr1∆)
IDTSKNLENMSIQDTST [YCG1]	2.79 ± 0.046	2.94 ± 0.041	2.71 ± 0.044	2.68 ± 0.041
IEDLRADINSNRLSNPQ [YOR098C/NUP1]	2.64 ± 0.09	2.8 ± 0.076	2.72 ± 0.06	2.93 ± 0.061
IEEAKSIRRQDYINELS [REC8]	–	3.11 ± 0.22	3.39 ± 0.16	3.14 ± 0.17
IEEEIFDDSSRIVNHKT [LIN1]	3.14 ± 0.083	2.91 ± 0.1	3.11 ± 0.072	2.97 ± 0.071
IEFEYDPWNKLKHTDYW [RPB3]	2.85 ± 0.1	2.69 ± 0.17	2.81 ± 0.089	3.06 ± 0.089
IEILVKDNECSSFEENN [RRI2]	2.86 ± 0.13	3.02 ± 0.13	2.89 ± 0.12	3.33 ± 0.12
IELSDGSTFKVNQEFIF [YJL039C/NUP192]	3.23 ± 0.088	3.07 ± 0.059	2.78 ± 0.061	3.13 ± 0.064
IEMKDVSSKPSKPESSV [MED1]	3.15 ± 0.12	3.33 ± 0.11	2.89 ± 0.076	3.25 ± 0.064
IEMYVQEASKQYTKDEQ [RPN2]	3.3 ± 0.084	3.16 ± 0.091	3.06 ± 0.057	3.31 ± 0.069
IENMTKEKVSNGGVGVD [FAS2]	3.23 ± 0.088	3.16 ± 0.1	3.33 ± 0.087	3.11 ± 0.063
IEPVTKVSSLKMFIQRI [YCS4]	2.91 ± 0.064	2.9 ± 0.065	3.17 ± 0.048	3.31 ± 0.065
IEQFAMRRNSKILNIIK [POP5]	3.08 ± 0.084	2.88 ± 0.077	2.86 ± 0.076	3.23 ± 0.07
IETIGHLITKEEIMHGL [RPN5]	2.82 ± 0.089	3.31 ± 0.14	3.13 ± 0.079	2.97 ± 0.067
IEYCSAQPSVQSSFAGT [FAS2]	2.72 ± 0.11	3.07 ± 0.094	2.77 ± 0.073	2.56 ± 0.059
IFINYKQTADWLAEKFQ [PRP28]	1.7 ± 0.049	1.93 ± 0.06	2.37 ± 0.072	2.36 ± 0.06
IFNGETLEDALRRIITD [GRR1]	1.96 ± 0.084	1.96 ± 0.059	2.07 ± 0.07	2.07 ± 0.064
IFSQMSRLLDILEDYCY [ISW2]	1.66 ± 0.048	2.8 ± 0.094	2.03 ± 0.11	3.01 ± 0.092
IFSQTTNSTYNPASATD [YJL039C/NUP192]	2.83 ± 0.054	2.69 ± 0.071	2.46 ± 0.054	2.63 ± 0.046
IFTEKIYKSIFNVVDVG [YJL039C/NUP192]	1.99 ± 0.07	1.71 ± 0.072	1.72 ± 0.14	1.33 ± 0.065
IGAAELNENARELEQIK [SNF12]	3.18 ± 0.081	3.18 ± 0.067	2.84 ± 0.12	3.33 ± 0.05
IGHLITKEEIMHGLQAK [RPN5]	2.91 ± 0.087	2.96 ± 0.091	2.94 ± 0.065	3.01 ± 0.067
IGNLITRQFEGRSNEIV [PRP8]	3.05 ± 0.075	3.29 ± 0.087	3 ± 0.058	2.7 ± 0.074
IGTANYKPLIEERMGQI [SMC4]	3.1 ± 0.087	3.53 ± 0.087	3.37 ± 0.059	3.27 ± 0.063
IHGELKTYKEGINKNEE [SMC1]	2.94 ± 0.075	3.09 ± 0.051	2.87 ± 0.055	3.01 ± 0.046
IHKIQNDNNLKKLESQE [RPN5]	3.08 ± 0.2	3 ± 0.17	2.85 ± 0.11	–
IHSLVKQRLDLARQVKL [YIL149C/MLP2]	2.69 ± 0.064	2.6 ± 0.061	3.03 ± 0.064	2.83 ± 0.047

Sequence	protein stability index (doa10∆)	protein stability index (pdr5∆)	protein stability index (san1∆)	protein stability index (ubr1∆)
IIAELSFLKVDPDLGLD [YJL039C/NUP192]	3.35 ± 0.091	3.26 ± 0.086	3.23 ± 0.1	3 ± 0.095
IIASASYDKTVKLWEED [YGL100W/SEH1]	3.3 ± 0.18	3.67 ± 0.25	3.22 ± 0.093	3.41 ± 0.12
IIDEIITQMRVNDEEEH [RPC82]	3 ± 0.084	2.54 ± 0.071	3.54 ± 0.12	2.19 ± 0.079
IIFASTKLGFTFTIKEF [SNU114]	2.37 ± 0.078	2.44 ± 0.059	1.83 ± 0.074	2.56 ± 0.066
IIKLVEGLANDPENKVP [RPS12]	2.01 ± 0.086	1.77 ± 0.065	2.25 ± 0.092	2.08 ± 0.09
IILGTNLYDGAEHKYMP [BRR2]	3.06 ± 0.12	3.47 ± 0.096	3.6 ± 0.087	3.27 ± 0.1
IIMFVGLQGSGKTTSCT [SRP54]	2.8 ± 0.067	3.04 ± 0.054	3.13 ± 0.064	3.13 ± 0.046
IINSTALMKEKDIRSTL [RPC82]	3.12 ± 0.19	3 ± 0.099	2.97 ± 0.093	3.25 ± 0.09
IIPQDILDCVVTNSMRQ [YJR042W/NUP85]	3.01 ± 0.069	3.15 ± 0.072	3.35 ± 0.044	2.94 ± 0.063
IIRHEKELEPWDLQLQE [SMC4]	3.28 ± 0.15	2.82 ± 0.13	–	3.47 ± 0.16
IITSGRDTREVLEERER [ARP9]	3.41 ± 0.16	3.36 ± 0.14	3.52 ± 0.065	3.52 ± 0.1
IIVPDLIELKSDLLVAP [YML103C/NUP188]	1.65 ± 0.052	1.8 ± 0.056	1.95 ± 0.094	1.69 ± 0.059
IKDSVREVGTKFTTVLA [ECM29]	2.77 ± 0.084	2.6 ± 0.07	2.22 ± 0.078	2.42 ± 0.05
IKEENDMENMADEQKRS [ARP7]	3.54 ± 0.17	3.48 ± 0.15	3.24 ± 0.095	3.19 ± 0.24
IKEKVQFNATINPESRE [ITC1]	1.67 ± 0.046	1.6 ± 0.044	1.97 ± 0.073	2.07 ± 0.037
IKELLNITKNLKTFNGS [POP4]	1.99 ± 0.13	2 ± 0.064	2.46 ± 0.056	2.21 ± 0.047
IKGQCLATLLGHNDWVS [ASC1]	1.37 ± 0.083	1.69 ± 0.083	1.72 ± 0.11	1.65 ± 0.066
IKHKHKKVKLAVLSYYK [RPS31]	2.23 ± 0.047	2.59 ± 0.074	2.37 ± 0.073	2.25 ± 0.048
IKIEPSADDDVNNGNIP [SIR3]	2.12 ± 0.098	2.44 ± 0.14	2.58 ± 0.15	2.76 ± 0.13
IKKVICGAWEPAITIEK [SIR3]	2.15 ± 0.094	2.45 ± 0.087	2.47 ± 0.1	2.58 ± 0.084
IKLDIVVGQNQLIDQFE [SNF5]	1.88 ± 0.075	2.07 ± 0.098	2.11 ± 0.092	2.25 ± 0.085
IKPKIALQDKEITSVLS [SNF12]	2.31 ± 0.082	2.39 ± 0.1	2.36 ± 0.16	2.28 ± 0.093
IKRTDEGGEAEFIFGTY [ARP7]	3.35 ± 0.093	3.3 ± 0.11	3.37 ± 0.056	3.36 ± 0.045
IKVTVQLKIQNRQAAAS [RPL12A]	1.57 ± 0.052	2 ± 0.052	1.75 ± 0.1	2.16 ± 0.04
ILDLKEFDRRILKKSLM [RTT102]	–	3.47 ± 0.23	3.19 ± 0.099	3.22 ± 0.28
ILDNINHNGSALLIEVF [ITC1]	1.13 ± 0.096	1.22 ± 0.076	1.14 ± 0.13	1.22 ± 0.07

From the supplement of paper PMC9732359
